Values of other authors as cited in paper PMC7878404.

Biological target: Bex1 50-75 (UniProt Q9R224)
Chain of UniProt Q9R224 (Q9R224 50-75): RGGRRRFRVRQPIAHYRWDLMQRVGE

Kd: 150 µM
Substance: OMP (from UniProt P08523)
